Test results published in patent publication US20030166868A1.

How the values were obtained:
[1] = molecular target: C1q (human) (UniProt P02745); test: cell-based or functional assay
[2] = molecular target: C1q (human) (UniProt P02745); test: C1q binding ELISA, antibody coated on plate, 2 ug/ml C1q, anti-C1q-HRP detection
[3] = molecular target: CD20 antigen (UniProt P11836); test: flow cytometry on WIL2-S cells expressing CD20; EC50 as percentage of C2B8 reference; set-up: unit not given beside the values
Sequence of CD20 antigen (P11836 whole entry): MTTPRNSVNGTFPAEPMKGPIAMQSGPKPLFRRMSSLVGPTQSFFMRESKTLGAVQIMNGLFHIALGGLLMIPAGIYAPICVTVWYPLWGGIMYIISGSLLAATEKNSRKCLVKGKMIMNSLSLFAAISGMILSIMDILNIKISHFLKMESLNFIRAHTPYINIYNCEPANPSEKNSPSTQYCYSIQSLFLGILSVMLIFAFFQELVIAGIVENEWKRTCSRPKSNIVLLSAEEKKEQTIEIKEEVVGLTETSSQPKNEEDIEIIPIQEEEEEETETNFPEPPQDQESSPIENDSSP

[4] = molecular target: C1q (human) (UniProt P02745); test: C1q binding ELISA, antibody coated on plate up to 100 ug/ml, 2 ug/ml C1q

Sequence of C1q (human) (P02745 23-245 limits assumed, chain 1 of 3): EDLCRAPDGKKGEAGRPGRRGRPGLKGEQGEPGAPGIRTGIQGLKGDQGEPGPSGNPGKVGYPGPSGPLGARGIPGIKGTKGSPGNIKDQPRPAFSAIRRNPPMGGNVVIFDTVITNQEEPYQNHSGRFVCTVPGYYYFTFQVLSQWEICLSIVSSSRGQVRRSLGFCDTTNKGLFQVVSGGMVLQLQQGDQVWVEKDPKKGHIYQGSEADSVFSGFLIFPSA
Sequence of C1q (human) (P02746 28-253 limits assumed, chain 2 of 3, further chain): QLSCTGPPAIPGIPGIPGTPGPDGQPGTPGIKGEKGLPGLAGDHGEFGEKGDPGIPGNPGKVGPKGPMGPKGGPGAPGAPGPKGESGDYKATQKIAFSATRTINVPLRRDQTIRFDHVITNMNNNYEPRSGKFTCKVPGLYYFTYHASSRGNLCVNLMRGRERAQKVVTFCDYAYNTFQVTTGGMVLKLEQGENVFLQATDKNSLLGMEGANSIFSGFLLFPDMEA
Sequence of C1q (human) (P02747 29-245 limits assumed, chain 3 of 3, further chain): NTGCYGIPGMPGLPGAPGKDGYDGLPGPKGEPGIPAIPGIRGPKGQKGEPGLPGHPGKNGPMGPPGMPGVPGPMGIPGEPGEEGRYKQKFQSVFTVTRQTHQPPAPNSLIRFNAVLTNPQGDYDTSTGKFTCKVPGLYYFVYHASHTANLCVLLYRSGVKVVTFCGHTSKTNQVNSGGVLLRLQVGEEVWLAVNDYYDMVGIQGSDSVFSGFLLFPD

CDC (percent activity as compared to wild type C2B8) (% of wild type) [1] | percent decrease in binding against wild type C2B8 [2] [% decrease] | EC50 as a percentage of the wild type (% of wild type) [3] | fold lower binding than wild type C2B8 (fold lower than wild type) [4] | Substance
108 | 30 | 89 | – | C2B8 mutant E318A (antibody)
108 | – | 102 | – | C2B8 mutant K320A (antibody)
– | – | 112 | – | C2B8 mutant P329A (antibody)
– | – | 103 | 60 | C2B8 mutant P331A (antibody)
